Assay results from patent publication US20040071712A1.

Target: human mpl receptor (c-Mpl, the TPO receptor) (human) (UniProt P40238)
Assay: cell-based or functional assay

increase in potency as compared to the monomer (cell proliferation assay) [fold]	loss of activity against the equivalent GGGG-linked analog (cell proliferation assay) [fold]	potency as compared to the monomer (cell proliferation assay) [fold]	Binder
> 1000	–	–	IEGPTLRQWLAARAGGGIEGPTLRQWLAARA [TMP-(G)n-TMP, n = 3 (peptide 4)]
> 1000	–	–	IEGPTLRQWLAARAGGGGGIEGPTLRQWLAARA [TMP-(G)n-TMP, n = 5 (peptide 6)]
> 1000	–	–	IEGPTLRQWLAARAGGGGGGGIEGPTLRQWLAARA [TMP-(G)n-TMP, n = 7 (peptide 8)]
> 1000	–	–	IEGPTLRQWLAARAGGGGIEGPTLRQWLAARA [TMP-(G)n-TMP, n = 4 (peptide 5)]
> 1000	–	–	IEGPTLRQWLAARAGIEGPTLRQWLAARA [TMP-(G)n-TMP, n = 1 (peptide 2)]
> 1000	–	–	IEGPTLRQWLAARAIEGPTLRQWLAARA [TMP-(G)n-TMP, n = 0 (peptide 1)]

Further lines, the binder ahead of its results:

Binder	increase in potency as compared to the monomer (cell proliferation assay) [fold]	loss of activity against the equivalent GGGG-linked analog (cell proliferation assay) [fold]	potency as compared to the monomer (cell proliferation assay) [fold]
IEGPTLRQWLAARAGGGGGGIEGPTLRQWLAARA [TMP-(G)n-TMP, n = 6 (peptide 7)]	> 1000	–	–
IEGPTLRQWLAARAGPNGIEGPTLRQWLAARA [TMP-GPNG-TMP (peptide 13)]	–	> 10	100
IEGPTLRQWLAARAGGGGGGGGGIEGPTLRQWLAARA [TMP-(G)n-TMP, n = 9 (peptide 10)]	> 1000	–	–
IEGPTLRQWLAARAGGGGGGGGGGIEGPTLRQWLAARA [TMP-(G)n-TMP, n = 10 (peptide 11)]	> 1000	–	–
IEGPTLRQWLAARAGGGGGGGGGGGGGGIEGPTLRQWLAARA [TMP-(G)n-TMP, n = 14 (peptide 12)]	> 1000	–	–
IEGPTLRQWLAARAGGGGGGGGIEGPTLRQWLAARA [TMP-(G)n-TMP, n = 8 (peptide 9)]	> 1000	–	–
IEGPTLRQWLAARAGGIEGPTLRQWLAARA [TMP-(G)n-TMP, n = 2 (peptide 3)]	> 1000	–	–
